Reference: patent US20240076386A1 (Pfizer, published 2024)

Columns and labels:
[1] = target: T1, recombinant histidine-tagged cynomolgus monkey E-selectin (Sino Biologicals; 190169-C08H) (cynomolgus monkey, UniProt A0A2K5U7H9 22-554); test: direct binding ELISA, further assay
T1 construct: also called recombinant cynomolgus monkey E-selectin
T1 sequence: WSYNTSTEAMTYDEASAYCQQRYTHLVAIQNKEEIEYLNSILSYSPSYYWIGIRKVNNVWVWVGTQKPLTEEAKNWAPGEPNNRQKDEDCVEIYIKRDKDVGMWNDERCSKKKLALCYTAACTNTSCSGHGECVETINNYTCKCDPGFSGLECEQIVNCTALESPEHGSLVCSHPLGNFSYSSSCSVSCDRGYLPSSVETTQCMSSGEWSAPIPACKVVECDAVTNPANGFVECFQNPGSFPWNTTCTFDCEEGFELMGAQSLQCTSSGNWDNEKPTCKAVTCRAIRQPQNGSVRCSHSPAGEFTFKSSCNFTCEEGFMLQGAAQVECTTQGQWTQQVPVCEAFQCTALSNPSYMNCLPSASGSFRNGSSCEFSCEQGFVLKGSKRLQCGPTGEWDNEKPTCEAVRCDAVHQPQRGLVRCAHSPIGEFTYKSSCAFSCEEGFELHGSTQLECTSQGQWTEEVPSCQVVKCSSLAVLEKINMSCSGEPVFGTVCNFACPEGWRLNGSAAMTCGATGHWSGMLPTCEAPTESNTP
Procedure: Recombinant histidine tagged human P-, E- or L-selectin (Sino Biologicals), mouse E-selectin (Sino Biologicals), rat E-selectin (Sino Biologicals) and Cynomolgus monkey E-selectin (Sino Biologicals) stock solutions were prepared to a final concentration of 1 μg/mL in phosphate buffered saline without calcium and magnesium. Controls included an L-selectin directed antibody (BioLegend; 304811) or P-selectin directed antibody or a negative control IgG. One hundred μL per well of the diluted recombinant selectin proteins were added into a Ni-NTA HisSorb 96 well plate (Qiagen; 35061). Plates were incubated on an orbital shaker at room temperature for 2 hours. Following the incubation, the plates were washed 3 times with 200 μL of wash buffer (50 mM TRIS [trisaminomethane]; 150 mM sodium chloride; 0.05% polysorbate 20, pH 7.4). […] Anti L-selectin and anti-rat-E-selectin antibodies were detected using 1 to 25000 dilution of Peroxidase-conjugated AffiniPure Goat Anti-Mouse IgG (H+L); (Jackson ImnnunoResearch Lab).
Plates were washed and 100 μL per well of 1-Step Ultra TMB substrate (Thermo Scientific) was added and incubated for 5 minutes at room temperature. Reactions were stopped with 100 μL of 2 M sulfuric acid and absorbance read at 450 nm (Spectramax M5e).

[2] = target: T2, human E-selectin extracellular domain with 10 His purification tail (human, UniProt P16581 22-556); test: SPR, soluble recombinant protein
T2 construct: also called soluable human E-selectin extracellular domain; rhE-Selectin
T2 sequence: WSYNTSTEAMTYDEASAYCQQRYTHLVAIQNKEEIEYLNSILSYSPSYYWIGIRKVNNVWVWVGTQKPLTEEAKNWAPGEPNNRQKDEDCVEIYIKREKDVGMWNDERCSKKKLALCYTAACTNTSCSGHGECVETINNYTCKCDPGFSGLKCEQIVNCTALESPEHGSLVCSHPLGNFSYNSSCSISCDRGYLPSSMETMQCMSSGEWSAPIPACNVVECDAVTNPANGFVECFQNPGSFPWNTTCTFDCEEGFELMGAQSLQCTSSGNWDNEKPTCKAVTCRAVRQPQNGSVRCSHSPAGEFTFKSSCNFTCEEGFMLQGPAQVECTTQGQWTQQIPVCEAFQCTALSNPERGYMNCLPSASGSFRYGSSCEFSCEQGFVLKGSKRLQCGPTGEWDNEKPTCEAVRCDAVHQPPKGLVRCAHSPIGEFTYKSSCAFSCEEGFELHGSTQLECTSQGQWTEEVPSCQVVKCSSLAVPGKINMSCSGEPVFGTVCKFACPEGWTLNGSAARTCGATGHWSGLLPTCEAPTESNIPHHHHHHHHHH
Procedure: (§1) To characterize binding of antibodies to human, cynomolgus monkey, and mouse E-selectin, an antibody was diluted to 0.5 μg/mL in HBS-EP+ and captured by the anti-human IgG immobilized on flow cells 2, 3 and 4 for 30 seconds to 1 minute at a flow rate of 10 μL/minute to achieve a capture level of 70 to 300 RU. Flow cell 1 was used as a reference surface. […] HBS-EP+ buffer cycles collected for each captured antibody were used for double-referencing (Myszka D G. J. Mol. Recognition 1999; 12(5):279-84). At the end of each cycle, the entire anti-IgG surface was regenerated by a 30 second pulse of 3 M MgCl₂ and a 30 second pulse of ionic buffer (1.83 M MgCl₂, 0.92 M Urea, 1.83 M Guanidine HCl, pH 7.4) (Andersson K. Analy. Chem. 1999; 71(13): 2475-81). Kinetic assays were conducted at 25° C. at a collection rate of 10 Hertz (Hz) on a BIAcore™ T200 instrument (GE Healthcare). Rate constants and affinities were determined by fitting the data to a 1:1 binding model in BIAcore™ T200 Evaluation software version 3.0 (GE Healthcare).

[3] = target: T3, cynomolgus monkey E-selectin extracellular domain with 10 His purification tail (cynomolgus monkey, UniProt P16581 22-554 (human entry)); test: SPR, soluble recombinant protein
T3 construct: also called cynomolgus E-selectin; truncated cynomolgus monkey E-selectin
T3 chain: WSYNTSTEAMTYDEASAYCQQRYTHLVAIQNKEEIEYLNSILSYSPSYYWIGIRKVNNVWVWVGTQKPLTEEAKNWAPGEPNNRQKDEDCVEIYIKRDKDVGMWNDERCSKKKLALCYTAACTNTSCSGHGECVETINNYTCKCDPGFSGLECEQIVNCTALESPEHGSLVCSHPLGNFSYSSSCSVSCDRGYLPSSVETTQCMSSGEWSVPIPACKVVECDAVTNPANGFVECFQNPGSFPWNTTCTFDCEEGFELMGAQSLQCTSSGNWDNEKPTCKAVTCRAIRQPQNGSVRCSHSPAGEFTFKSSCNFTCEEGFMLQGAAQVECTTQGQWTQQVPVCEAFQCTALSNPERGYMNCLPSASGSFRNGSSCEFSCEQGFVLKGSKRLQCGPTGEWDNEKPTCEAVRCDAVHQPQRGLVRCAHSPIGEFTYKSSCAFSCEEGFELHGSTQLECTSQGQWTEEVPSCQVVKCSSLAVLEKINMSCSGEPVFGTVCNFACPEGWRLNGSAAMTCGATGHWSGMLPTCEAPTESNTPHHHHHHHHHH
Procedure: as §1

B1: optimized anti-E-selectin antibody 1444 (antibody, human IgG1, kappa, V domains shown)
VH: EVQLVESGGGLVQPGGSLRLSCAASGYAIRSAYMHWVRQAPGKGLEWVARIDPANGNTIYVDSVTGRFTISADNAKNSAYLQMNSLRAEDTAVYYCAMDLYSTSEYWGQGTLVTVSS
VL: DIQMTQSPSSLSASVGDRVTITCKTSQNIERYLNWYQQKPGKAPKLLIYAASSLQSGVPSRFSGSGSGTDFTLTISSLQPEDFATYFCLQDNAWPLTFGQGTKVEIKR
notes: effector-null human IgG1, kappa
- EC50 [1]: 0.071 to 0.075 nM
- Kd [2]: 68.4 nM
- Kd [3]: 64.9 nM
